Test results taken from PMC9482650, “Quantitative fragmentomics allow affinity mapping of interactomes” (Nature Communications, 2022).

B1: CTNND2, Q9UQB3 (peptide)
chain: HYPASPDSWV
B2: PRKN, O60260 (peptide)
chain: VCMGDHWFDV

How the values were obtained:
Assay in all cases: holdup assay
Design in all cases: key: below the threshold = too weak to quantify, mostly under pKd 3.1 to 4
Conditions in all cases: plain residues with an end cap or a label only (N-terminal biotin on a linker: ado-ado)
ARHGEF12, Q9NZN5-2 = target: ARHGEF12, Q9NZN5-2
DLG1_2, Q12959 = target: DLG1_2, Q12959
DLG3_1, Q92796 = target: T1, DLG3_1, Q92796
T1 sequence (Q92796 125-227, limits assumed, looked up): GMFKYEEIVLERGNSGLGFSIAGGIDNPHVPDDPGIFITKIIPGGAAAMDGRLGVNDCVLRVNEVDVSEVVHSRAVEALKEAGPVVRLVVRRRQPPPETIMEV

DLG3_3, Q92796 = target: T2, DLG3_3, Q92796
T2 sequence (Q92796 374-475, limits assumed, looked up): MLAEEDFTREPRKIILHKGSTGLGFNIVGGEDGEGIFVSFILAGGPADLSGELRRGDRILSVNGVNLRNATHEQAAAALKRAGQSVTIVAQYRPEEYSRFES

DLG5_1, Q8TDM6 = target: DLG5_1, Q8TDM6
DVL3, Q92997 = target: T3, DVL3, Q92997
T3 sequence (Q92997 244-331, limits assumed, looked up): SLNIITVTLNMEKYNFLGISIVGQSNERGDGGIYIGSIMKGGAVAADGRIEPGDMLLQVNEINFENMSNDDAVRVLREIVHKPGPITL

FRMPD2_1, Q68DX3 = target: FRMPD2_1, Q68DX3
GOPC, Q9HD26 = target: GOPC, Q9HD26
GORASP2, Q9H8Y8 = target: GORASP2, Q9H8Y8
GRASP, Q7Z6J2 = target: GRASP, Q7Z6J2
GRID2IP_1, A4D2P6 = target: GRID2IP_1, A4D2P6
Inadl_1, Q8NI35 = target: Inadl_1, Q8NI35
Inadl_10, Q8NI35 = target: Inadl_10, Q8NI35
Inadl_5, Q8NI35 = target: Inadl_5, Q8NI35
Inadl_9, Q8NI35 = target: Inadl_9, Q8NI35
LIN7A, O14910 = target: T4, LIN7A, O14910
T4 sequence (O14910 103-200, limits assumed, looked up): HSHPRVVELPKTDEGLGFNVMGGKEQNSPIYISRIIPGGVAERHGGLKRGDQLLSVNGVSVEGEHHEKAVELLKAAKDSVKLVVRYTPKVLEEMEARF

LIN7B, Q9HAP6 = target: T5, LIN7B, Q9HAP6
T5 sequence (Q9HAP6 88-185, limits assumed, looked up): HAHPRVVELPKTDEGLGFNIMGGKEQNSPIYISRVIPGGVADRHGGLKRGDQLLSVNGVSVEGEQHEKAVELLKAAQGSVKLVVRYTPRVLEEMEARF

LNX1_1, Q8TBB1 = target: LNX1_1, Q8TBB1
MAGI2_2, Q86UL8 = target: MAGI2_2, Q86UL8
MAGI2_6, Q86UL8 = target: MAGI2_6, Q86UL8
MAST2, Q6P0Q8 = target: MAST2, Q6P0Q8
MPDZ_12, O75970 = target: T6, MPDZ_12, O75970
T6 sequence (O75970 1857-1958, limits assumed, looked up): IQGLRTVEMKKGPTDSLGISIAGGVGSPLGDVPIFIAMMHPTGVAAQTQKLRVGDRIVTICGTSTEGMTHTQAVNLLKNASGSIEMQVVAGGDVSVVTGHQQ

NHERF2_2, Q15599 = target: NHERF2_2, Q15599
NHERF4_4, Q86UT5 = target: NHERF4_4, Q86UT5
PCLO, Q9Y6V0 = target: T7, PCLO, Q9Y6V0
T7 sequence (Q9Y6V0 4491-4600, limits assumed, looked up): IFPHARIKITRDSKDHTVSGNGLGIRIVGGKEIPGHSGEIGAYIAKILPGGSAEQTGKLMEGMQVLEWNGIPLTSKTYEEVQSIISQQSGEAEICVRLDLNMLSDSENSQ

PTPN13_1, Q12923 = target: T8, PTPN13_1, Q12923
T8 sequence (Q12923 1088-1188, limits assumed, looked up): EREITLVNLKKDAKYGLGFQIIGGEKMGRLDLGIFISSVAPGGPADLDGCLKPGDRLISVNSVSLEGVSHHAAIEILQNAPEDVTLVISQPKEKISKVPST

SHANK1, Q9Y566 = target: T9, SHANK1, Q9Y566
T9 sequence (Q9Y566 658-767, limits assumed, looked up): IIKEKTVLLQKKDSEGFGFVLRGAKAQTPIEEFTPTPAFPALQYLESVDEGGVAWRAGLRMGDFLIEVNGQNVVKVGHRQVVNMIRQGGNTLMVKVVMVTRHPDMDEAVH

TX1BP3, O14907 = target: T10, TX1BP3, O14907
T10 sequence (O14907 10-122, limits assumed, looked up): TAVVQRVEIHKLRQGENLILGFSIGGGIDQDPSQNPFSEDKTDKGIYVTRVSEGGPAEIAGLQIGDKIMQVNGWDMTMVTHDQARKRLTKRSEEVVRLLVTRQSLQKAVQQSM

Inadl_1, Q8NI35, sequence (Q8NI35 113-229): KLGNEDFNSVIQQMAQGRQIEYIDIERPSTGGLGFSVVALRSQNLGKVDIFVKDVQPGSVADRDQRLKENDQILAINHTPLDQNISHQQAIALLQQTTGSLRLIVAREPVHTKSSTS
LNX1_1, Q8TBB1, sequence (Q8TBB1 261-371): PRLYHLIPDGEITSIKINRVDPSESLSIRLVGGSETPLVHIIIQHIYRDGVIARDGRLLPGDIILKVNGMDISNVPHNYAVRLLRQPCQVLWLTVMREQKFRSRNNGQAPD
MAGI2_6, Q86UL8, sequence (Q86UL8 1141-1229): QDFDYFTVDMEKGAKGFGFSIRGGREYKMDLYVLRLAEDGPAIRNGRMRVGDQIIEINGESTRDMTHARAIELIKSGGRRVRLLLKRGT
Inadl_5, Q8NI35, sequence (Q8NI35 673-780): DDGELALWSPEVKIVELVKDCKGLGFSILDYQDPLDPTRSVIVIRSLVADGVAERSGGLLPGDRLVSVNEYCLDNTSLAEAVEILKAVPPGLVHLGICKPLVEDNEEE
Inadl_10, Q8NI35, sequence (Q8NI35 1673-1763): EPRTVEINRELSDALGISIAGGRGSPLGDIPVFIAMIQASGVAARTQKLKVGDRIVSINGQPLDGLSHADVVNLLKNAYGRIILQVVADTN
MAGI2_2, Q86UL8, sequence (Q86UL8 410-522): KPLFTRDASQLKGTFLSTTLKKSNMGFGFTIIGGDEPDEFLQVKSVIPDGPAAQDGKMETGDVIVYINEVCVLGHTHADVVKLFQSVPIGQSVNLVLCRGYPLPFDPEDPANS
GRASP, Q7Z6J2, sequence (Q7Z6J2 96-193): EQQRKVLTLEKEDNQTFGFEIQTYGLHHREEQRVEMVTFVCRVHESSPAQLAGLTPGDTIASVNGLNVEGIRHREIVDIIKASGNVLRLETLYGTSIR
NHERF2_2, Q15599, sequence (Q15599 142-238): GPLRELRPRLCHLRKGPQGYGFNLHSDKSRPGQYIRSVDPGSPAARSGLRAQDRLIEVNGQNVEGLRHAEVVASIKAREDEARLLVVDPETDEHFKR
FRMPD2_1, Q68DX3, sequence (Q68DX3 770-861): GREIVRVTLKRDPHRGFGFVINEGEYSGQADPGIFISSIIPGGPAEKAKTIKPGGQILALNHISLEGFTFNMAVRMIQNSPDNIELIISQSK
NHERF4_4, Q86UT5, sequence (Q86UT5 464-550): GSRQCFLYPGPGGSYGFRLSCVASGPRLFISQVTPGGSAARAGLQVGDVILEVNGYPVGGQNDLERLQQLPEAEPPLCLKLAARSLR
GRID2IP_1, A4D2P6, sequence (A4D2P6 1-87): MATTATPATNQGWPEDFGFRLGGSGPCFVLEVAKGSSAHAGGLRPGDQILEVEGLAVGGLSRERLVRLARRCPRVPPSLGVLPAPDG
DLG1_2, Q12959, sequence (Q12959 314-412): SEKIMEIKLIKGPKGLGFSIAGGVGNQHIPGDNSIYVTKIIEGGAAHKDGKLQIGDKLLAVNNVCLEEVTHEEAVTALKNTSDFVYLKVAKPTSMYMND
DLG5_1, Q8TDM6, sequence (Q8TDM6 617-713): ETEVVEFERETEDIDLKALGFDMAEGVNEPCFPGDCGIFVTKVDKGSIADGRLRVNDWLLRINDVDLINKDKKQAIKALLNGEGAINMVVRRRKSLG
ARHGEF12, Q9NZN5-2, sequence (Q9NZN5 other isoform, or with tags, fused parts or gaps): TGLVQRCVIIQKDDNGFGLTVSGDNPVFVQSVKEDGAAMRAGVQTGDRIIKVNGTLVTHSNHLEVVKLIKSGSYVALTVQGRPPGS
MAST2, Q6P0Q8, sequence (Q6P0Q8 1099-1202): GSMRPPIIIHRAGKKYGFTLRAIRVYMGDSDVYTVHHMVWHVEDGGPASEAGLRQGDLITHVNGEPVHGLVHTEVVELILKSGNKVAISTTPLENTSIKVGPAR
Inadl_9, Q8NI35, sequence (Q8NI35 1530-1615): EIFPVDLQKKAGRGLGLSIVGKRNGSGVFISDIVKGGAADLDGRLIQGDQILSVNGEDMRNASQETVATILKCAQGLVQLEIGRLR

Row | Binder | pKd (ARHGEF12, Q9NZN5-2) | pKd (DLG1_2, Q12959) | pKd (DLG3_1, Q92796) | pKd (DLG3_3, Q92796) | pKd (DLG5_1, Q8TDM6) | pKd (DVL3, Q92997) | pKd (FRMPD2_1, Q68DX3) | pKd (GOPC, Q9HD26) | pKd (GORASP2, Q9H8Y8) | pKd (GRASP, Q7Z6J2) | pKd (GRID2IP_1, A4D2P6) | pKd (Inadl_1, Q8NI35) | pKd (Inadl_10, Q8NI35) | pKd (Inadl_5, Q8NI35) | pKd (Inadl_9, Q8NI35) | pKd (LIN7A, O14910) | pKd (LIN7B, Q9HAP6) | pKd (LNX1_1, Q8TBB1) | pKd (MAGI2_2, Q86UL8) | pKd (MAGI2_6, Q86UL8) | also measured
1 | B1 | below the threshold | 4.65 | 3.99 | below the threshold | below the threshold | 4.04 | below the threshold | below the threshold | 4.51 | 3.76 | below the threshold | below the threshold | 3.53 | 3.64 | 3.9 | below the threshold | below the threshold | 4.12 | below the threshold | 5.37 | pKd (MAST2, Q6P0Q8): 4.17; pKd (MPDZ_12, O75970): 4.65; pKd (NHERF2_2, Q15599): 3.84; pKd (NHERF4_4, Q86UT5): below the threshold; pKd (PCLO, Q9Y6V0): below the threshold; pKd (PTPN13_1, Q12923): below the threshold; pKd (SHANK1, Q9Y566): below the threshold; pKd (TX1BP3, O14907): 5.15
2 | B2 | below the threshold | below the threshold | below the threshold | below the threshold | below the threshold | 3.59 | below the threshold | below the threshold | 4.77 | 3.53 | below the threshold | below the threshold | below the threshold | below the threshold | 3.69 | below the threshold | below the threshold | 3.94 | below the threshold | 4.19 | pKd (MAST2, Q6P0Q8): 4.85; pKd (MPDZ_12, O75970): below the threshold; pKd (NHERF2_2, Q15599): below the threshold; pKd (NHERF4_4, Q86UT5): 4.3; pKd (PCLO, Q9Y6V0): below the threshold; pKd (PTPN13_1, Q12923): below the threshold; pKd (SHANK1, Q9Y566): below the threshold; pKd (TX1BP3, O14907): 3.77
